According to the DeepSol protein solubility set:

Assay: soluble on expression in E. coli; label from the status in PepcDB or PDB records

Sequence	soluble on expression in E. coli
MGHHHHHHSHMTLEEFSAGEQKTERMDKVGDALEEVLSKALSQRTITVGVYEAAKLLNVDPDNVVLCLLAADEDDDRDVALQIHFTLIQAFCCENDINILRVSNPGRLAELLLLETDAGPAASEGAEQPPDLHCVLVTNPHSSQWKDPALSQLICFCRESRYMDQWVPVINLPER	not soluble
MSLENAGSRPFLADFNGFSYLELKGLHTFERDLGEKMALEMVFLARGPSGLLLYNGQKTDGKGDFVSLALHNRHLEFRYDLGKGAAIIRSKEPIALGTWVRVFLERNGRKGALQVGDGPRVLGESPVPHTMLNLKEPLYVGGAPDFSKLARGAAVASGFDGAIQLVSLRGHQLLTQEHVLRAVDVAPFAGEGHHHHHH	soluble
MSLKQRPNVLLIVLDTARARTVLPGLESGLMPTLSRIASDGTTFTDATATAPWTLPSHAGMFTGKYTSSHGVHAGNHIFDPDSEPLASRISNAGYRTAGISGNVWISPEFGFDAGFDEFSMKWDLFWDAPELSSVISNRNTTATGDTILDVFRGQGPVDLLKGTLTTGYAKFLAERHDDGAHHTTSRTVEWLEQNGTEDDPFFYFLNYVEPHLPYEPPAPFLDEYLPDGADPSRVSDLNQDPWQYVAGDQELTDADVEIFKGLYEAELAYLDTQLERLYDTLAEQCILDETAIILVGDHGENIGEHGLMDHQYCLYETLIHVPLVIRYPELFDEEEVSGPVELRDLYPTVTDLAGAEQPADTDVSTHSLVPRDGTVPVRDRAIAEYLVPQPSMDSLREAVESFDEAATRFDRPLRAIKTTDWKFIEAPDDTELYDRDDDPIEWIDVASIHPDICELLGTDLRDELGRLARGTSDSNTISANKKERLEDLGYLQ	not soluble
GSSGSSGNWIDVRYDLEKIESLIQSIHIDTTLYTDSDFHPSCKVTAMNCFLLELQVILHEYSNMTLNETVRNVLYLANSTLSSNKNVAESGCKECEELEEKTFTEFLQSFIRIVQMFINTS	soluble
MTIKLINIGFGNIISANRMISIVSPESAPIKRMIQDARDRGMLIDATYGRRTRAVVVMDSDHIILSAVQPETVAHRLSVKEEIMDEGQG	not soluble
MNYWLMKSEPDEFSIEDLKARPNQTEPWFGIRNYQARNYMRDAMQIGDKVFFYHSSCKVPGIVGIAEVVTNAYPDSTAFDPESTYFDPKSDPSNPRWLRVDIRFVEQFKEIIPLSLIKSLPQLADMYLVSKGSRLSIQPVTAEQWQAVLMLSRLEHHHHHH	soluble
MIHLEHINLVVDDIPKALIFYQAAFPHWRIRGGGESTWYSKPRNWTHFGDDYQYIAFSDNGEGENRDLTGHQIGLAHFAFVVSDLDAIITRLTQAGFPIAKEGMEDPYRRNIYFFDAHGFEVEFVEYLSDIPAERNRYLEHHHHHH	soluble
GPGSMPALKPLLVFGLRGTLVERIHVRHVPEGMPAADFTVGLVKVWLRPHMVEVLNELQEHCRLAIWSSTTARNTHPLVNAVFGSNMTLQAGAGATTAAPARQEAASASAVVAASASNGRSGRFGTKRRPTKAEAADEESASEAAINAPKPQRVHFEFVWTREHTRVDDFRRLNAAVNDDSHATVKDLSQVFAQFPSIAQPQNTVLIDDTPSKAKMQADNYLWLDTCSNLRIKDETSLYRLRDFVMRELVPAEDVRELLPRRIRM	soluble
MSLGMTHSFITEWDNTPKTKMRFSREVSFAELQRVTNCMAKHEIPSIEDFIWVLKEAAKVLSTLPNNVHVIPEPNDRLIFVGDLHGCFETLIRLFLGYPQQNIPRTGFPGEIVDGRRLVYFFNGDFVDRGGSGYQIVFLLAYMAIACPGSCYLNRGNHESEMFGLSTQGMLGNKFMSEMAGKFSGMDPETYRPAIGEFFCALPIAHTIDRNIFMVHGGVPLGDDLSNVPRAAPQSYFSTGSPAPIPKGLKPYKISNLDNLTPSRQKTTNFEDNPRKQNELWHSFVWNYDRLPYSADFMEENNFKTMVHSHTATPFHQITSFLPLEKTSGEKYSIQSVIKNQEMFDRMKAFFASHQLANSSKLSILEIFSSPTEGHHHHHH	not soluble
MGSDKIHHHHHHMPDTTHATIRSARLGDVEHILAEYRQAVAELPREESANLLWRPYDEFKAAVENGLFFVIENAVGSFMAGAGVFDLPGSVEKELGMCYVKKEWRGYGLQNLLLQIRICAATLGHVPDKSGEDAATKSFAALITGVKPANEHSAANTERLGFEPLPTPPSALFNACASCRTPPARDSGRKCCCDFFYLSDARRAEAIEKSLQMENWSRTRNGHGLIVALKIRHLLDIDFRNALHDIVQELRAQEPRVPTPGKQVK	not soluble
